Test results as given in paper PMC9482650, “Quantitative fragmentomics allow affinity mapping of interactomes” (Nature Communications, 2022).
Each block holds one binder with its values, some of them ahead of it.

What was measured:
Test in all cases: holdup assay
Parameters in all cases: key: below the threshold = too weak to quantify, mostly under pKd 3.1 to 4
MPDZ_10, O75970 = target: T1, MPDZ_10, O75970
T1 sequence (O75970 1624-1722, limits assumed, looked up): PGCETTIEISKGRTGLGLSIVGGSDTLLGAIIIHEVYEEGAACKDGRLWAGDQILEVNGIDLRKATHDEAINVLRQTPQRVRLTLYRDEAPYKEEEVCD

PICK1, Q9NRD5 = target: PICK1, Q9NRD5
PICK1, Q9NRD5, sequence (Q9NRD5 17-115): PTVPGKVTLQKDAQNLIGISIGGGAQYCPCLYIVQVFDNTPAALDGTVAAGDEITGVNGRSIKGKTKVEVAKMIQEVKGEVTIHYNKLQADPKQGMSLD

MAGI2_6, Q86UL8 = target: MAGI2_6, Q86UL8
MAGI2_6, Q86UL8, sequence (Q86UL8 1141-1229): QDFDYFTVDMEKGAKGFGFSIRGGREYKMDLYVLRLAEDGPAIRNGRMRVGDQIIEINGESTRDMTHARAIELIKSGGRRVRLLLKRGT

DLG4_3, P78352 = target: DLG4_3, P78352
DLG4_3, P78352, sequence (P78352 306-403): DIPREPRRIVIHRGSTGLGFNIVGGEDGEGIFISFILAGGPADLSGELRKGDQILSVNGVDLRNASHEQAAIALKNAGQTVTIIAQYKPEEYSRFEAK

NHERF3_3, Q5T2W1 = target: T2, NHERF3_3, Q5T2W1
T2 sequence (Q5T2W1 238-333, limits assumed, looked up): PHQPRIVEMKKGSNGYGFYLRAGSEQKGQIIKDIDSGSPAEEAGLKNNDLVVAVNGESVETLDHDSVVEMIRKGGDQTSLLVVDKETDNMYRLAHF

LIN7B, Q9HAP6 = target: T3, LIN7B, Q9HAP6
T3 sequence (Q9HAP6 88-185, limits assumed, looked up): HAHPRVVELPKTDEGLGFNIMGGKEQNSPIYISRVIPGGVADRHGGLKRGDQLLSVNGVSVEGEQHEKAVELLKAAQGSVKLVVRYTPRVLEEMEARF

LNX1_1, Q8TBB1 = target: LNX1_1, Q8TBB1
LNX1_1, Q8TBB1, sequence (Q8TBB1 261-371): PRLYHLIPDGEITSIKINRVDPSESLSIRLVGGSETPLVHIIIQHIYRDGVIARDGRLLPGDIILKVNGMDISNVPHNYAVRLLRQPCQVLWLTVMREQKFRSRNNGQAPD

NHERF4_4, Q86UT5 = target: NHERF4_4, Q86UT5
NHERF4_4, Q86UT5, sequence (Q86UT5 464-550): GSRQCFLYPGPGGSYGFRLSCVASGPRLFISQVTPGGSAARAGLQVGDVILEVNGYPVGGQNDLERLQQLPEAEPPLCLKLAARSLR

NHERF4_1, Q86UT5-2 = target: NHERF4_1, Q86UT5-2
NHERF4_1, Q86UT5-2, sequence (Q86UT5 other isoform, or with tags, fused parts or gaps): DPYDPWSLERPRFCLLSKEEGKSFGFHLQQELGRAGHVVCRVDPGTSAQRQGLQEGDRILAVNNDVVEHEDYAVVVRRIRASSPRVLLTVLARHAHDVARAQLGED

PTPN13_1, Q12923 = target: T4, PTPN13_1, Q12923
T4 sequence (Q12923 1088-1188, limits assumed, looked up): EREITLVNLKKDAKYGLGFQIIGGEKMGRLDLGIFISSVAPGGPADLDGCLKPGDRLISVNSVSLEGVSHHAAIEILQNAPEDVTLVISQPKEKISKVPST

MPP7, Q5T2T1 = target: T5, MPP7, Q5T2T1
T5 sequence (Q5T2T1 134-230, limits assumed, looked up): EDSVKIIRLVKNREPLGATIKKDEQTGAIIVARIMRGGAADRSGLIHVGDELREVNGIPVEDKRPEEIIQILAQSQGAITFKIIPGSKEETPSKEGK

FRMPD2_2, Q68DX3 = target: FRMPD2_2, Q68DX3
FRMPD2_2, Q68DX3, sequence (Q68DX3 944-1038): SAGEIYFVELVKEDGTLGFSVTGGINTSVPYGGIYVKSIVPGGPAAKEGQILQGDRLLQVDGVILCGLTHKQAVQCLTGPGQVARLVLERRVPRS

MAGI1_2, Q96QZ7 = target: MAGI1_2, Q96QZ7
MAGI1_2, Q96QZ7, sequence (Q96QZ7 456-580): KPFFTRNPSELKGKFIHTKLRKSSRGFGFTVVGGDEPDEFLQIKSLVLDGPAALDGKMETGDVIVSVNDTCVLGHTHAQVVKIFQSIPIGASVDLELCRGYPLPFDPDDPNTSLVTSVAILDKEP

Inadl_4, Q8NI35 = target: Inadl_4, Q8NI35
Inadl_4, Q8NI35, sequence (Q8NI35 547-651): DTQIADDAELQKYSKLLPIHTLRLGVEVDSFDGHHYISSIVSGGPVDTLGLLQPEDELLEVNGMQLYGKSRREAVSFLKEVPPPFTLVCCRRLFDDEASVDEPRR

SHANK1, Q9Y566 = target: T6, SHANK1, Q9Y566
T6 sequence (Q9Y566 658-767, limits assumed, looked up): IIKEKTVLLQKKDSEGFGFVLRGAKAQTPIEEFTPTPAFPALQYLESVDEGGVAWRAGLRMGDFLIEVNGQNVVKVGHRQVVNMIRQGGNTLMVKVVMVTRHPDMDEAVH

GRIP1_7, Q9Y3R0 = target: T7, GRIP1_7, Q9Y3R0
T7 sequence (Q9Y3R0 999-1096, limits assumed, looked up): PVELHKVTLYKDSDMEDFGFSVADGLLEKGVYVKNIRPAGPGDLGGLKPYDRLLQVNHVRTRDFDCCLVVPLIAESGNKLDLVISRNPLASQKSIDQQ

MPP2, Q14168 = target: T8, MPP2, Q14168
T8 sequence (Q14168 180-250, limits assumed, looked up): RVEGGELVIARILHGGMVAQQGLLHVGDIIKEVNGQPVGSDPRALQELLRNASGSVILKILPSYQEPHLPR

SNTG1, Q9NSN8 = target: T9, SNTG1, Q9NSN8
T9 sequence (Q9NSN8 52-150, limits assumed, looked up): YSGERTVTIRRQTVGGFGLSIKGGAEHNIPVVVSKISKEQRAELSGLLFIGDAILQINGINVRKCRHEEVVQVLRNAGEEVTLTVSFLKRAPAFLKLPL

SNX27, Q96L92 = target: SNX27, Q96L92
SNTA1, Q13424 = target: T10, SNTA1, Q13424
T10 sequence (Q13424 82-180, limits assumed, looked up): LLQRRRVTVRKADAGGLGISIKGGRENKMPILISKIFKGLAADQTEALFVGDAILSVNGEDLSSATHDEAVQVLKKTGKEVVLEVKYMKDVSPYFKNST

PTPN3, P26045 = target: PTPN3, P26045
PTPN3, P26045, sequence (P26045 505-587): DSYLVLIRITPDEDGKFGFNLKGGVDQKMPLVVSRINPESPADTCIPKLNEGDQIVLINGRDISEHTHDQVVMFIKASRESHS

RAPGEF6, Q8TEU7 = target: T11, RAPGEF6, Q8TEU7
T11 sequence (Q8TEU7 525-625, limits assumed, looked up): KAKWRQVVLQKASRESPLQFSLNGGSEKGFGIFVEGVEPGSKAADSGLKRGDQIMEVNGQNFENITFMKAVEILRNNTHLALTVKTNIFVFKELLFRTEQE

DLG5_1, Q8TDM6 = target: DLG5_1, Q8TDM6
DLG5_1, Q8TDM6, sequence (Q8TDM6 617-713): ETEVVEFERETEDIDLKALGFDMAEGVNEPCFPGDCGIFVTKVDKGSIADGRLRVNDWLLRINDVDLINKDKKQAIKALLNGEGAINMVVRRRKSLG

IL16_1, Q14005 = target: IL16_1, Q14005
IL16_1, Q14005, sequence (Q14005 210-306): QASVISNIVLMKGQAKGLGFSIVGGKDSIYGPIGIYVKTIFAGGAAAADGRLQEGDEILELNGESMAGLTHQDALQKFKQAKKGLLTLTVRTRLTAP

Inadl_6, Q8NI35 = target: Inadl_6, Q8NI35
Inadl_6, Q8NI35, sequence (Q8NI35 1058-1167): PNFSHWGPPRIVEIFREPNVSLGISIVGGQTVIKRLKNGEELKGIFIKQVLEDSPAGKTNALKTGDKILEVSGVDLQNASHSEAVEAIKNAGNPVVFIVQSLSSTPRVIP

APBA1_2, Q02410 = target: T12, APBA1_2, Q02410
T12 sequence (Q02410 742-832, limits assumed, looked up): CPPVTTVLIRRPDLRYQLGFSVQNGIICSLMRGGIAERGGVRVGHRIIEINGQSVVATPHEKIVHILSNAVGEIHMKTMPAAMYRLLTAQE

[1] = plain residues with an end cap or a label only (N-terminal biotin on a linker: ahx)
[2] = plain residues with an end cap or a label only (N-terminal biotin on a linker: ado-ado)

- pKd (MPDZ_10, O75970; [1]): below the threshold
- pKd (PICK1, Q9NRD5; [1]): below the threshold
- pKd (MAGI2_6, Q86UL8; [1]): below the threshold
- pKd (DLG4_3, P78352; [1]): below the threshold
- pKd (NHERF3_3, Q5T2W1; [1]): below the threshold
- pKd (LIN7B, Q9HAP6; [1]): below the threshold
- pKd (LNX1_1, Q8TBB1; [1]): below the threshold
- pKd (NHERF4_4, Q86UT5; [1]): below the threshold
- pKd (NHERF4_1, Q86UT5-2; [1]): 3.6
- pKd (PTPN13_1, Q12923; [1]): below the threshold
- pKd (MPP7, Q5T2T1; [1]): below the threshold
- pKd (FRMPD2_2, Q68DX3; [1]): below the threshold
- pKd (MAGI1_2, Q96QZ7; [1]): below the threshold
- pKd (Inadl_4, Q8NI35; [1]): below the threshold
- pKd (SHANK1, Q9Y566; [1]): 5.25
- pKd (GRIP1_7, Q9Y3R0; [1]): below the threshold
- pKd (MPP2, Q14168; [1]): below the threshold
- pKd (SNTG1, Q9NSN8; [1]): below the threshold
- pKd (SNX27, Q96L92; [1]): 4.51
- pKd (SNTA1, Q13424; [1]): 3.49
- pKd (PTPN3, P26045; [1]): 3.71
- pKd (RAPGEF6, Q8TEU7; [1]): below the threshold
- pKd (DLG5_1, Q8TDM6; [1]): below the threshold
- pKd (IL16_1, Q14005; [1]): below the threshold
- pKd (Inadl_6, Q8NI35; [1]): 3.71
- pKd (APBA1_2, Q02410; [1]): below the threshold
Binder: KEYDDELTFF [USH1C, Q9Y6N9]

- pKd (MPDZ_10, O75970; [2]): below the threshold
- pKd (PICK1, Q9NRD5; [2]): below the threshold
- pKd (MAGI2_6, Q86UL8; [2]): below the threshold
- pKd (DLG4_3, P78352; [2]): below the threshold
- pKd (NHERF3_3, Q5T2W1; [2]): 3.61
- pKd (LIN7B, Q9HAP6; [2]): below the threshold
- pKd (LNX1_1, Q8TBB1; [2]): below the threshold
- pKd (NHERF4_4, Q86UT5; [2]): below the threshold
- pKd (NHERF4_1, Q86UT5-2; [2]): below the threshold
- pKd (PTPN13_1, Q12923; [2]): below the threshold
- pKd (MPP7, Q5T2T1; [2]): below the threshold
- pKd (FRMPD2_2, Q68DX3; [2]): below the threshold
- pKd (MAGI1_2, Q96QZ7; [2]): below the threshold
- pKd (Inadl_4, Q8NI35; [2]): below the threshold
- pKd (SHANK1, Q9Y566; [2]): 3.76
- pKd (GRIP1_7, Q9Y3R0; [2]): below the threshold
- pKd (MPP2, Q14168; [2]): below the threshold
- pKd (SNTG1, Q9NSN8; [2]): below the threshold
- pKd (SNX27, Q96L92; [2]): 5.18
- pKd (SNTA1, Q13424; [2]): below the threshold
- pKd (PTPN3, P26045; [2]): 4.25
- pKd (RAPGEF6, Q8TEU7; [2]): below the threshold
- pKd (DLG5_1, Q8TDM6; [2]): below the threshold
- pKd (IL16_1, Q14005; [2]): below the threshold
- pKd (Inadl_6, Q8NI35; [2]): below the threshold
- pKd (APBA1_2, Q02410; [2]): below the threshold
Binder: EKPIDSETKM [SLC1A3, P43003]

- pKd (MPDZ_10, O75970; [2]): below the threshold
- pKd (PICK1, Q9NRD5; [2]): below the threshold
- pKd (MAGI2_6, Q86UL8; [2]): below the threshold
- pKd (DLG4_3, P78352; [2]): below the threshold
- pKd (NHERF3_3, Q5T2W1; [2]): below the threshold
- pKd (LIN7B, Q9HAP6; [2]): below the threshold
- pKd (LNX1_1, Q8TBB1; [2]): below the threshold
- pKd (NHERF4_4, Q86UT5; [2]): below the threshold
- pKd (NHERF4_1, Q86UT5-2; [2]): below the threshold
- pKd (PTPN13_1, Q12923; [2]): below the threshold
- pKd (MPP7, Q5T2T1; [2]): below the threshold
- pKd (FRMPD2_2, Q68DX3; [2]): below the threshold
- pKd (MAGI1_2, Q96QZ7; [2]): below the threshold
- pKd (Inadl_4, Q8NI35; [2]): below the threshold
- pKd (SHANK1, Q9Y566; [2]): below the threshold
- pKd (GRIP1_7, Q9Y3R0; [2]): below the threshold
- pKd (MPP2, Q14168; [2]): below the threshold
- pKd (SNTG1, Q9NSN8; [2]): below the threshold
- pKd (SNX27, Q96L92; [2]): 4.2
- pKd (SNTA1, Q13424; [2]): below the threshold
- pKd (PTPN3, P26045; [2]): below the threshold
- pKd (RAPGEF6, Q8TEU7; [2]): below the threshold
- pKd (DLG5_1, Q8TDM6; [2]): below the threshold
- pKd (IL16_1, Q14005; [2]): below the threshold
- pKd (Inadl_6, Q8NI35; [2]): below the threshold
- pKd (APBA1_2, Q02410; [2]): below the threshold
Binder: DAAHHDESNC [FMNL3, Q8IVF7]
